T1: murine IL27 receptor (IL27Ra and gp130) on mouse cells (MC9/STAT3-Luc reporter cells; splenic CD4+ T cells) (mouse, UniProt O70394 25-623; Q00560 23-917)
T1 sequence (looked up) 1: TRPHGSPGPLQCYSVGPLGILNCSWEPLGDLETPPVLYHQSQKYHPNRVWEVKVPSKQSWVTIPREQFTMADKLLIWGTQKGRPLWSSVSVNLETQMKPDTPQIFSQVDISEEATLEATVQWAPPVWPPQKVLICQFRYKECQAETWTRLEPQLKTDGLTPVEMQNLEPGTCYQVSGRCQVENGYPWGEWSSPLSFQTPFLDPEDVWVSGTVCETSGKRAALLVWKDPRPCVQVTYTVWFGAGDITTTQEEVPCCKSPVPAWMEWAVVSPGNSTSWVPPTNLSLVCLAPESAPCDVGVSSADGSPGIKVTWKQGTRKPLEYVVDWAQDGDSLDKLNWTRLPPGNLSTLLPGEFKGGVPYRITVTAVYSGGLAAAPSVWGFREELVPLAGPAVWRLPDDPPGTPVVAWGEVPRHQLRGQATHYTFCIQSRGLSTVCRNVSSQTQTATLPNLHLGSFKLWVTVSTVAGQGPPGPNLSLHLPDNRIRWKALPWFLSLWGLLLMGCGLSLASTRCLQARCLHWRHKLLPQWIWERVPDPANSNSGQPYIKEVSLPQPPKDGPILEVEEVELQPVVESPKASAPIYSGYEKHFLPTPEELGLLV
T1 sequence (looked up) 2: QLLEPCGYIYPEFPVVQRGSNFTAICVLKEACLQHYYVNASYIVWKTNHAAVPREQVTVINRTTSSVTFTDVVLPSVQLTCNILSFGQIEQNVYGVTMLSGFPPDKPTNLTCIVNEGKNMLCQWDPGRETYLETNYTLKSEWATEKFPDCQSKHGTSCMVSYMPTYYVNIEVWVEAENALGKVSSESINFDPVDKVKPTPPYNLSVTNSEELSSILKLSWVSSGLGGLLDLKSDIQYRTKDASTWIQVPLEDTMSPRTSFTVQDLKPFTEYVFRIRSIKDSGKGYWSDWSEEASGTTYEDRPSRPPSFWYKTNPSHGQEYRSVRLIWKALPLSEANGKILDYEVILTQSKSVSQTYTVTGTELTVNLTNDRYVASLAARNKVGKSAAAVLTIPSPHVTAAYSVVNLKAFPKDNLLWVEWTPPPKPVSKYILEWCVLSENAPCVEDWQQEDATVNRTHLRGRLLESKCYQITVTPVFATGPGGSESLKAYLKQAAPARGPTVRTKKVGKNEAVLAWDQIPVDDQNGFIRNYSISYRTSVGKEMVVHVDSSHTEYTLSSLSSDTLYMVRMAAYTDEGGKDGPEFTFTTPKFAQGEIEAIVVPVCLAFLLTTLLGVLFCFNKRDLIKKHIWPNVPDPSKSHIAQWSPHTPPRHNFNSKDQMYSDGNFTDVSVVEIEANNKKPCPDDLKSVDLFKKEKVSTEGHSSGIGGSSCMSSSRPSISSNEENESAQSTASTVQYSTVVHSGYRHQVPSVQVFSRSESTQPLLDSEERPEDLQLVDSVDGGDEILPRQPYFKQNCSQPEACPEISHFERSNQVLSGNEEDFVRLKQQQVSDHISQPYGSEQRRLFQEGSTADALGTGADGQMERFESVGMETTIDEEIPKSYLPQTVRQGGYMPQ


Legend:
Assay in all cases: cell-based or functional assay
[1] = molecular target: T1, murine IL27 receptor (IL27Ra and gp130) …
[2] = molecular target: T1, murine IL27 receptor (IL27Ra and gp130) …; remark: listed apart in the source
[3] = molecular target: human IL27 receptor (IL27Ra and gp130) on NCI-H929/GAS-Luc cells (human) (UniProt Q6UWB1)
Chain of human IL27 receptor (IL27Ra and gp130) on NCI-H929/GAS-Luc cells (human) (Q6UWB1 33-636, chain 1 of 2): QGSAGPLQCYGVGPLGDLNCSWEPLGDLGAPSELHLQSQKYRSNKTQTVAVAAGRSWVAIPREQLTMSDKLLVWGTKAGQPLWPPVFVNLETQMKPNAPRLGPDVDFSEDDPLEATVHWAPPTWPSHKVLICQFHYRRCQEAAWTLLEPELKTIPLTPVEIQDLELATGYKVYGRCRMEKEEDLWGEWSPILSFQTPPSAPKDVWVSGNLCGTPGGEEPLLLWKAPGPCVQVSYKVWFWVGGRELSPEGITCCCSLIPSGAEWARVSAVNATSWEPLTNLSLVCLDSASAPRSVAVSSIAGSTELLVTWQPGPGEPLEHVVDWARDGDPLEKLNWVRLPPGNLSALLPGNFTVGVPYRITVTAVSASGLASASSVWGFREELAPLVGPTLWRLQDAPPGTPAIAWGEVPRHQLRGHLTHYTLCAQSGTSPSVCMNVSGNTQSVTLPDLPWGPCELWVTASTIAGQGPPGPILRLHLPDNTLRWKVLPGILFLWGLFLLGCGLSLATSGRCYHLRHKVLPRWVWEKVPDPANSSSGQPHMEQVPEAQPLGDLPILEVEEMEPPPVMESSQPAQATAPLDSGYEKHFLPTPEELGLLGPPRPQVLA
Chain of human IL27 receptor (IL27Ra and gp130) on NCI-H929/GAS-Luc cells (human) (chain, as listed by the source, chain 2 of 2): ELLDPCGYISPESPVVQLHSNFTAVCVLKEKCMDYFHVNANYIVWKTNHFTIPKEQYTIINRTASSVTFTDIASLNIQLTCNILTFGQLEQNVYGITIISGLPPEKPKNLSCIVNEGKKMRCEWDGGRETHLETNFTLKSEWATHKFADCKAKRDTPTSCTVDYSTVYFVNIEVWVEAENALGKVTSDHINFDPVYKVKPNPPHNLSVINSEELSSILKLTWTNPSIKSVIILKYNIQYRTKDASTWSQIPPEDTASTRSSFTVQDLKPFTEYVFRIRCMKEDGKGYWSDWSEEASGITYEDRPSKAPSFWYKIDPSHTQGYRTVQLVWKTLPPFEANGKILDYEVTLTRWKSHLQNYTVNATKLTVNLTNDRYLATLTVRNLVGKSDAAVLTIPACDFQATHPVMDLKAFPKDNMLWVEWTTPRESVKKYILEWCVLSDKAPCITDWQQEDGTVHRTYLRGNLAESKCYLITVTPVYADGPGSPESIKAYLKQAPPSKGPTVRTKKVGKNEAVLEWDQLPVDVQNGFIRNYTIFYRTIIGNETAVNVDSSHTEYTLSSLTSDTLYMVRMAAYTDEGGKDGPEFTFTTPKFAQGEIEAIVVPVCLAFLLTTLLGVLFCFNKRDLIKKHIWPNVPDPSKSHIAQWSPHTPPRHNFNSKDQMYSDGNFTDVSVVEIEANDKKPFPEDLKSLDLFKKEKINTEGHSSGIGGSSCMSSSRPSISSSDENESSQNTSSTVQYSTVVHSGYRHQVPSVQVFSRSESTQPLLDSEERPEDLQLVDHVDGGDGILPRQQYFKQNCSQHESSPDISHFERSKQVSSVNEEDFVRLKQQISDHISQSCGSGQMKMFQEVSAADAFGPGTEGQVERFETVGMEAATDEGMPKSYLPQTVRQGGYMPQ

Binder	EC50, luciferase activity, MC9/STAT3-Luc reporter cells [1] [nM]	EC50, phosphorylation of STAT1 in CD4+ T-cells [1] [µg/mL]	EC50 (M), STAT3 luciferase, MC9 cells [2] [M]	FOLD INDUCTION, STAT3 luciferase, MC9 cells [2] [fold]	EC50 (M), GAS luciferase, NCI-H929/GAS-Luc cells [3] [M]	FOLD INDUCTION, GAS luciferase, NCI-H929/GAS-Luc cells [3] [fold]
IL27M1, Mouse EBI3-(GGGS)4-p28-(GGGGS)3-Fc (Fc fusion) YTETALVALSQPRVQCHASRYPVAVDCSWTPLQAPNSTRSTSFIATYRLGVATQQQSQPCLQRSPQASRCTIPDVHLFSTVPYMLNVTAVHPGGASSSLLAFVAERIIKPDPPEGVRLRTAGQRLQVLWHPPASWPFPDIFSLKYRLRYRRRGASHFRQVGPIEATTFTLRNSKPHAKYCIQVSAQDLTDYGKPSDWSLPGQVESAPHKPGGGSGGGSGGGSGGGSFPTDPLSLQELRREFTVSLYLARKLLSEVQGYVHSFAESRLPGVNLDLLPLGYHLPNVSLTFQAWHHLSDSERLCFLATTLRPFPAMLGGLGTQGTWTSSEREQLWAMRLDLRDLHRHLRFQVLAAGFKCSKEEEDKEEEEEEEEEEKKLPLGALGGPNQVSSQVSWPQLLYTYQLLHSLELVLSRAVRDLLLLSLPRRPGSAWDSGGGGSGGGGSGGGGSESKYGPPCPPCPAPPVAGPSVFLFPPKPKDTLMISRTPEVTCVVVDVSQEDPEVQFNWYVDGVEVHNAKTKPREEQFNSTYRVVSVLTVLHQDWLNGKEYKCKVSNKGLPSSIEKTISKAKGQPREPQVYTLPPSQEEMTKNQVSLTCLVKGFYPSDIAVEWESNGQPENNYKTTPPVLDSDGSFFLYSRLTVDKSRWQEGNVFSCSVMHEALHNHYTQKSLSLSLGK	~0.48	~2	1.01e-09	2.95		
Recombinant human IL27 (R&D Systems cat# 2526-IL-010/CF), Human EBI3-…-Human p28-6-His tag (ligand) RKGPPAALTLPRVQCRASRYPIAVDCSWTLPPAPNSTSPVSFIATYRLGMAARGHSWPCLQQTPTSTSCTITDVQLFSMAPYVLNVTAVHPWGSSSSFVPFITEHIIKPDPPEGVRLSPLAERQLQVQWEPPGSWPFPEIFSLKYWIRYKRQGAARFHRVGPIEATSFILRAVRPRARYYVQVAAQDLTDYGELSDWSLPATATMSLGKGSGSSRGGSGSGGSGGGGSKLAGVWGFPRPPGRPQLSLQELRREFTVSLHLARKLLSEVRGQAHRFAESHLPGVNLYLLPLGEQLPDVSLTFQAWRRLSDPERLCFISTTLQPFHALLGGLGTQGRWTNMERMQLWAMRLDLRDLQRHLRFQVLAAGFNLPEEEEEEEEEEEEERKGLLPGALGSALQGPAQVSWPQLLSTYRLLHSLELVLSRAVRELLLLSKAGHSVWPLGFPTLSPQPHHHHHH					3.34e-10	12.3

— patent US20230110958A1 (Regeneron, published 2023)
